# Changes are numbered by the printed parent chain. In names and notes the source's numbering stands.
# B1: GLS3000 Q27D one-arm antibody (antibody, human IgG1, kappa, L234A L235A, N297A, name in Kabat numbering)
# heavy: QVQLVESGGGVVQPGRSLRLSCAASGFTFSNAWMHWVRQAPGKGLEWVAQIKAKSNNYATYYAESVKGRFTISRDDSKNSLYLQMNSLKTEDTAVYYCRYVHYGAYYGVDAWGQGTTVTVSSASTKGPSVFPLAPSSKSTSGGTAALGCLVKDYFPEPVTVSWNSGALTSGVHTFPAVLQSSGLYSLSSVVTVPSSSLGTQTYICNVNHKPSNTKVDKKVEPKSCDKTHTCPPCPAPEAAGGPSVFLFPPKPKDTLMISRTPEVTCVVVDVSHEDPEVKFNWYVDGVEVHNAKTKPREEQYASTYRVVSVLTVLHQDWLNGKEYKCKVSNKALPAPIEKTISKAKGQPREPQVYTLPPSRCELTKNQVSLSCAVKGFYPSDIAVEWESNGQPENNYKTTPPVLDSDGSFFLVSKLTVDKSRWQQGNVFSCSVMHEALHNHYTQKSLSLSPDYKDDDDK
# chain: EPKSSDKTHTCPPCPAPELLGGPSVFLFPPKPKDTLMISRTPEVTCVVVDVSHEDPEVKFNWYVDGVEVHNAKTKPREEQYNSTYRVVSVLTVLHQDWLNGKEYKCKVSNKALPAPIEKTISKAKGQPREPQVCTLPPSRDELTKNQVSLWCLVKGFYPSDIAVEWESNGQPENNYKTTPPVLDSDGSFFLYSKLTVDKSRWQQGNVFSCSVMHEALHNRYTQKSLSLSP
# light: DIVMTQSPLSLPVTPGEPASISCRSSDSLVHSNRNTYLHWYQQKPGQAPRLLIYKVSNRFSGVPDRFSGSGSGTDFTLKISRVEAEDVGVYYCGQGTQVPYTFGQGTKLEIKRTVAAPSVFIFPPSDEQLKSGTASVVCLLNNFYPREAKVQWKVDNALQSGNSQESVTEQDSKDSTYSLSSTLTLSKADYEKHKVYACEVTHQGLSSPVTKSFNRGEC
# B2: GLS3000 R29D one-arm antibody (antibody, human IgG1, kappa, L234A L235A, N297A, name in Kabat numbering)
# heavy: B1 heavy
# chain: B1 chain
# light: B1 light with D27Q, R34D
# B3: GLS3000 R29I one-arm antibody (antibody, human IgG1, kappa, L234A L235A, N297A, name in Kabat numbering)
# heavy: B1 heavy
# chain: B1 chain
# light: B1 light with D27Q, R34I
# B4: GLS3000 Q93S one-arm antibody (antibody, human IgG1, kappa, L234A L235A, N297A, name in Kabat numbering)
# heavy: B1 heavy
# chain: B1 chain
# light: B1 light with D27Q, Q98S
# B5: GLS3000 Q90D one-arm antibody (antibody, human IgG1, kappa, L234A L235A, N297A, name in Kabat numbering)
# heavy: B1 heavy
# chain: B1 chain
# light: B1 light with D27Q, Q95D
# B6: GLS3000 Q93P one-arm antibody (antibody, human IgG1, kappa, L234A L235A, N297A, name in Kabat numbering)
# heavy: B1 heavy
# chain: B1 chain
# light: B1 light with D27Q, Q98P
# B7: GLS3000 R29L one-arm antibody (antibody, human IgG1, kappa, L234A L235A, N297A, name in Kabat numbering)
# heavy: B1 heavy
# chain: B1 chain
# light: B1 light with D27Q, R34L
# B8: GLS3000 R24D one-arm antibody (antibody, human IgG1, kappa, L234A L235A, N297A, name in Kabat numbering)
# heavy: B1 heavy
# chain: B1 chain
# light: B1 light with R24D, D27Q
# B9: GLS3000 Q27E one-arm antibody (antibody, human IgG1, kappa, L234A L235A, N297A, name in Kabat numbering)
# heavy: B1 heavy
# chain: B1 chain
# light: B1 light with D27E
# B10: GLS3000 R24G one-arm antibody (antibody, human IgG1, kappa, L234A L235A, N297A, name in Kabat numbering)
# heavy: B1 heavy
# chain: B1 chain
# light: B1 light with R24G, D27Q
# B11: GLS3000 R24P one-arm antibody (antibody, human IgG1, kappa, L234A L235A, N297A, name in Kabat numbering)
# heavy: B1 heavy
# chain: B1 chain
# light: B1 light with R24P, D27Q
# B12: GLS3000 Q90A one-arm antibody (antibody, human IgG1, kappa, L234A L235A, N297A, name in Kabat numbering)
# heavy: B1 heavy
# chain: B1 chain
# light: B1 light with D27Q, Q95A
# B13: GLS3000 Q93E one-arm antibody (antibody, human IgG1, kappa, L234A L235A, N297A, name in Kabat numbering)
# heavy: B1 heavy
# chain: B1 chain
# light: B1 light with D27Q, Q98E
# B14: GLS3000 R24Y one-arm antibody (antibody, human IgG1, kappa, L234A L235A, N297A, name in Kabat numbering)
# heavy: B1 heavy
# chain: B1 chain
# light: B1 light with R24Y, D27Q
# B15: GLS3000 R24A one-arm antibody (antibody, human IgG1, kappa, L234A L235A, N297A, name in Kabat numbering)
# heavy: B1 heavy
# chain: B1 chain
# light: B1 light with R24A, D27Q
# B16: GLS3000 Q93A one-arm antibody (antibody, human IgG1, kappa, L234A L235A, N297A, name in Kabat numbering)
# heavy: B1 heavy
# chain: B1 chain
# light: B1 light with D27Q, Q98A
# B17: GLS3000 R24Q one-arm antibody (antibody, human IgG1, kappa, L234A L235A, N297A, name in Kabat numbering)
# heavy: B1 heavy
# chain: B1 chain
# light: B1 light with R24Q, D27Q
# B18: GLS3000 R24E one-arm antibody (antibody, human IgG1, kappa, L234A L235A, N297A, name in Kabat numbering)
# heavy: B1 heavy
# chain: B1 chain
# light: B1 light with R24E, D27Q
# B19: GLS3000 R29S one-arm antibody (antibody, human IgG1, kappa, L234A L235A, N297A, name in Kabat numbering)
# heavy: B1 heavy
# chain: B1 chain
# light: B1 light with D27Q, R34S
# B20: GLS3000 R24T one-arm antibody (antibody, human IgG1, kappa, L234A L235A, N297A, name in Kabat numbering)
# heavy: B1 heavy
# chain: B1 chain
# light: B1 light with R24T, D27Q
# B21: GLS3000 Q27L one-arm antibody (antibody, human IgG1, kappa, L234A L235A, N297A, name in Kabat numbering)
# heavy: B1 heavy
# chain: B1 chain
# light: B1 light with D27L
# B22: GLS3000 Q90P one-arm antibody (antibody, human IgG1, kappa, L234A L235A, N297A, name in Kabat numbering)
# heavy: B1 heavy
# chain: B1 chain
# light: B1 light with D27Q, Q95P
# B23: GLS3000 R29P one-arm antibody (antibody, human IgG1, kappa, L234A L235A, N297A, name in Kabat numbering)
# heavy: B1 heavy
# chain: B1 chain
# light: B1 light with D27Q, R34P
# B24: GLS3000 R29A one-arm antibody (antibody, human IgG1, kappa, L234A L235A, N297A, name in Kabat numbering)
# heavy: B1 heavy
# chain: B1 chain
# light: B1 light with D27Q, R34A
# B25: GLS3000 R24S one-arm antibody (antibody, human IgG1, kappa, L234A L235A, N297A, name in Kabat numbering)
# heavy: B1 heavy
# chain: B1 chain
# light: B1 light with R24S, D27Q
# B26: GLS3000 Q27R one-arm antibody (antibody, human IgG1, kappa, L234A L235A, N297A, name in Kabat numbering)
# heavy: B1 heavy
# chain: B1 chain
# light: B1 light with D27R
# B27: GLS3000 Q93Y one-arm antibody (antibody, human IgG1, kappa, L234A L235A, N297A, name in Kabat numbering)
# heavy: B1 heavy
# chain: B1 chain
# light: B1 light with D27Q, Q98Y
# B28: GLS3000 Q90Y one-arm antibody (antibody, human IgG1, kappa, L234A L235A, N297A, name in Kabat numbering)
# heavy: B1 heavy
# chain: B1 chain
# light: B1 light with D27Q, Q95Y
# B29: GLS3000 Q27P one-arm antibody (antibody, human IgG1, kappa, L234A L235A, N297A, name in Kabat numbering)
# heavy: B1 heavy
# chain: B1 chain
# light: B1 light with D27P
# B30: GLS3000 R29G one-arm antibody (antibody, human IgG1, kappa, L234A L235A, N297A, name in Kabat numbering)
# heavy: B1 heavy
# chain: B1 chain
# light: B1 light with D27Q, R34G
# B31: GLS3000 Q93D one-arm antibody (antibody, human IgG1, kappa, L234A L235A, N297A, name in Kabat numbering)
# heavy: B1 heavy
# chain: B1 chain
# light: B1 light with D27Q, Q98D
# B32: GLS3000 Q90S one-arm antibody (antibody, human IgG1, kappa, L234A L235A, N297A, name in Kabat numbering)
# heavy: B1 heavy
# chain: B1 chain
# light: B1 light with D27Q, Q95S
# B33: GLS3000 Q93R one-arm antibody (antibody, human IgG1, kappa, L234A L235A, N297A, name in Kabat numbering)
# heavy: B1 heavy
# chain: B1 chain
# light: B1 light with D27Q, Q98R
# B34: GLS3000 Q90E one-arm antibody (antibody, human IgG1, kappa, L234A L235A, N297A, name in Kabat numbering)
# heavy: B1 heavy
# chain: B1 chain
# light: B1 light with D27Q, Q95E
# Biological target: T1, CD3ε homodimer protein (human, UniProt P07766 23-126, limits assumed)
# T1 construct: also called CD3 (CD3ε)
# Experiment: SPR Biacore T200, CD3ε homodimer on chip;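 note: Light-chain single-residue variant antibodies injected over amine-coupled CD3ε homodimer on a CM4 chip at 25 °C, bound amount divided by that of the GLS3000-containing antibody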
# T1 sequence (P07766 23-126 limits assumed): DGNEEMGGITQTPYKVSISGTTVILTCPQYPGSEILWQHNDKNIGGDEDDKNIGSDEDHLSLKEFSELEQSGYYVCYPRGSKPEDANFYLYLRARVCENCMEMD
row,ratio of amount bound vs unaltered GLS3000,Binder
1,0.85,B1
2,0.41,B2
3,0.37,B3
4,0.96,B4
5,0.19,B5
6,0.25,B6
7,0.56,B7
8,0.75,B8
9,0.88,B9
10,0.89,B10
11,0.7,B11
12,0.5,B12
13,0.75,B13
14,0.87,B14
15,0.86,B15
16,0.85,B16
17,0.9,B17

row,ratio of amount bound vs unaltered GLS3000,Binder
1,0.83,B18
2,0.68,B19
3,0.88,B20
4,0.92,B21
5,0.27,B22
6,0.31,B23
7,0.63,B24
8,0.89,B25
9,1.19,B26
10,0.87,B27
11,0.17,B28
12,0.29,B29
13,0.67,B30
14,0.72,B31
15,0.73,B32
16,1.13,B33
17,0.86,B34

# Source: patent US20260049138A1 (Chugai, published 2026)
